{"source": "patent US20230220098A1", "about": "“THERAPEUTIC DRUG FOR POLYCYTHEMIA” (PERSEUS PROTEOMICS INC., priority 2019, published 2023)", "key": {"hamster TfR": {"target": "hamster TfR (Cricetulus griseus, UniProt Q07891)", "sequence (Q07891 whole entry)": "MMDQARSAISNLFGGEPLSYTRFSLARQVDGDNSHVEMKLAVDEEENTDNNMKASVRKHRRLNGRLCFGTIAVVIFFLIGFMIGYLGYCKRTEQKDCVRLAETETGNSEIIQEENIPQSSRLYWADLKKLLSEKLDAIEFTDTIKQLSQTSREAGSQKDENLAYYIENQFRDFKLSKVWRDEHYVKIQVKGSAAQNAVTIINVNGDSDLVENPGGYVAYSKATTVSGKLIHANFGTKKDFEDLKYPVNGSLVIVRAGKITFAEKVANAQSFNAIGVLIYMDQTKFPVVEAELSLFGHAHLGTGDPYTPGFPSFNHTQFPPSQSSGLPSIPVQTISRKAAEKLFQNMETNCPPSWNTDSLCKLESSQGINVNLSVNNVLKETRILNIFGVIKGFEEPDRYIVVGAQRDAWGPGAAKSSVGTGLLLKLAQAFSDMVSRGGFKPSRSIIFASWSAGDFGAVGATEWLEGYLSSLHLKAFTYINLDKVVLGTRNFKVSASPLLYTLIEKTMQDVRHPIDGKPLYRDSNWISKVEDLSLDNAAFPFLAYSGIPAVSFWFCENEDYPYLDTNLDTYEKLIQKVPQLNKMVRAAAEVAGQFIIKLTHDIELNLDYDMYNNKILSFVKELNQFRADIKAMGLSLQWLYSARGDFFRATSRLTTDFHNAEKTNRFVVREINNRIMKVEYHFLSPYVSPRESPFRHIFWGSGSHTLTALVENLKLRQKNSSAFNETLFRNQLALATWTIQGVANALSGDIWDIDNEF", "test": "Cross-reactivity of TfR436 antibody with hamster TfR", "format": "binding"}, "[1]": {"system": "PV patient-derived hematopoietic stem cells", "test": "EPO-independent erythroblast (BFU-E/CFU-E) colony assay", "format": "cell-based, human", "method": "PV patient-derived hematopoietic stem cells are characterized in that BFU-E or CFU-E is formed in the cells even in the absence of erythropoietin (EPO). The activity of TfR436 to inhibit the formation of these colonies was examined.\n(§1) The peripheral blood of a PV patient, which had been obtained by phlebotomy, was dispensed into three 50-mL centrifuge tubes in an amount of 20 mL each, and an equal amount of PBS (Gibco) was then added to each tube, followed by mixing. Thereafter, 15 mL of LymphoSep, Lymphocyte Separation Media (MP Biomedicals™) was dispensed into […] novel 50-mL centrifuge tubes, and the peripheral blood diluted with PBS was then slowly added thereto in an amount of 30 mL each, and the obtained mixture was then centrifuged at 1,500 rpm at room temperature for 30 minutes. After completion of the centrifugation, the plasma as a supernatant was removed, and a PBMC layer was collected by transfer pipetting. The collected PBMC layer was suspended in 20 mL of PBS+2% FBS (Gibco). The thus obtained suspension was further centrifuged at 1350 rpm at room temperature for 10 minutes, a supernatant was then removed, and the residue was then suspended in 1 to 5 mL of IMDM (Nacalai Tesque)+2% FBS. Using 0.2% Trypan Blue, the number of cells was counted, and the cells were adjusted to 2×10^6 cells/mL by addition of IMDM+2% FBS.\n(§2) TfR436 and a human IgG1 antibody used as a negative control were each diluted with IMDM+2% FBS to an antibody concentration of […]. MethoCult™ H4534 Classic WithoutEPO (STEMCELL TECHNOLOGIES) was dispensed into seven 14-mL round bottle tubes in an amount of 3 mL each, and 300 jut of the above-prepared PBMC was then added thereto. Thereafter, an antibody-diluted solution or 3.3 μL of IMDM+2% FBS (control) was further added thereto, followed by full mixing. Thereafter, the reaction mixture was seeded on two 35-mm culture dishes in an amount of 1 mL each. This mixture was cultured at 37° C. in a 5% CO2 incubator for 14 days. After completion of the culture, the 35-mm culture dishes were observed under a microscope, and the number of the formed BFU-E or CFU-E colonies was then counted. The colony formation percentage with respect to the number of colonies obtained by a culture without addition of antibodies was then calculated."}, "[2]": {"system": "HYDREA (registered trademark)-administered patient-derived hematopoietic stem cells", "test": "Erythroblast colony assay, HYDREA-administered patients", "format": "cell-based, human", "method": "as §1, §2\nHematopoietic stem cells derived from patients administered with HYDREA (registered trademark) were used as PV patient-derived hematopoietic stem cells, and the activity of TfR436 to inhibit erythroblast colony formation was examined by the same method as that of Example 3. Besides, HYDREA (registered trademark) was administered as hydroxycarbamide (also referred to as “hydroxyurea”) to the patients via oral administration at a daily dose of 500 mg to 2000 mg once or divided over twice or three times. As a result, erythroblast colony formation was inhibited by addition of 100 ng/mL or more TfR436 (Table 2)."}}, "data": [{"molecule": "TfR436: anti-human transferrin receptor antibody, VH SEQ ID NO: 7 and VL SEQ ID NO: 8, described in WO2014/073641; called PPMX-T003 in Tables 3 and 4 (antibody, listed as Homo sapiens, V domains shown) VH: DVQLVQSGGGVVQPGRSLRLSCAASGFPFKSYGMHWVRQAPGKGLEWVAVISYDGSNKYYADSVKGRFTISRDNSKNTLYLQMNSLRGEDTAVYYCARDSNFWSGYYSPVDVWGQGTTVTVSS VL: NFMLTQPHSVSESPGKTVTISCTRSSGSIASNSVQWYQQRPGSAPITVIYEDTQRPSGVPDRFSGSIDSSSNSASLTISGLQTEDEADYYCQSYDSAYHWVFGGGTKLAVL", "values": [{"measurement": "cross-reactivity with hamster TfR", "setting": "hamster TfR", "result": "exhibited cross-reactivity"}, {"measurement": "formation of erythroblast colonies", "setting": "[1]; 100 ng/mL or more, 14 days, without EPO", "result": "almost completely inhibited"}, {"measurement": "colony formation percentage with respect to culture without addition of antibodies", "setting": "[1]; pt No. 1, 10 ng/mL", "result": 87.1, "unit": "%"}, {"measurement": "colony formation percentage with respect to culture without addition of antibodies", "setting": "[1]; pt No. 1, 100 ng/mL", "result": 0.0, "unit": "%"}, {"measurement": "colony formation percentage with respect to culture without addition of antibodies", "setting": "[1]; pt No. 1, 1000 ng/mL", "result": 0.0, "unit": "%"}, {"measurement": "colony formation percentage with respect to culture without addition of antibodies", "setting": "[1]; pt No. 2, 10 ng/mL", "result": 149.0, "unit": "%"}, {"measurement": "colony formation percentage with respect to culture without addition of antibodies", "setting": "[1]; pt No. 2, 100 ng/mL", "result": 2.1, "unit": "%"}, {"measurement": "colony formation percentage with respect to culture without addition of antibodies", "setting": "[1]; pt No. 2, 1000 ng/mL", "result": 0.0, "unit": "%"}, {"measurement": "colony formation percentage with respect to culture without addition of antibodies", "setting": "[1]; pt No. 3, 10 ng/mL", "result": 91.7, "unit": "%"}, {"measurement": "colony formation percentage with respect to culture without addition of antibodies", "setting": "[1]; pt No. 3, 100 ng/mL", "result": 0.0, "unit": "%"}, {"measurement": "colony formation percentage with respect to culture without addition of antibodies", "setting": "[1]; pt No. 3, 1000 ng/mL", "result": 0.0, "unit": "%"}, {"measurement": "colony formation percentage with respect to culture without addition of antibodies", "setting": "[1]; pt No. 7, 10 ng/mL", "result": 63.6, "unit": "%"}, {"measurement": "colony formation percentage with respect to culture without addition of antibodies", "setting": "[1]; pt No. 7, 100 ng/mL", "result": 0.0, "unit": "%"}, {"measurement": "colony formation percentage with respect to culture without addition of antibodies", "setting": "[1]; pt No. 7, 1000 ng/mL", "result": 0.0, "unit": "%"}, {"measurement": "colony formation percentage with respect to culture without addition of antibodies", "setting": "[1]; pt No. 9, 10 ng/mL", "result": 63.3, "unit": "%"}, {"measurement": "colony formation percentage with respect to culture without addition of antibodies", "setting": "[1]; pt No. 9, 100 ng/mL", "result": 0.0, "unit": "%"}, {"measurement": "colony formation percentage with respect to culture without addition of antibodies", "setting": "[1]; pt No. 9, 1000 ng/mL", "result": 1.0, "unit": "%"}, {"measurement": "colony formation percentage with respect to culture without addition of antibodies", "setting": "[1]; pt No. 11, 10 ng/mL", "result": 80.8, "unit": "%"}, {"measurement": "colony formation percentage with respect to culture without addition of antibodies", "setting": "[1]; pt No. 11, 100 ng/mL", "result": 0.0, "unit": "%"}, {"measurement": "colony formation percentage with respect to culture without addition of antibodies", "setting": "[1]; pt No. 11, 1000 ng/mL", "result": 0.0, "unit": "%"}, {"measurement": "colony formation percentage with respect to culture without addition of antibodies", "setting": "[1]; pt No. 13, 10 ng/mL", "result": 35.2, "unit": "%"}, {"measurement": "colony formation percentage with respect to culture without addition of antibodies", "setting": "[1]; pt No. 13, 100 ng/mL", "result": 23.9, "unit": "%"}, {"measurement": "colony formation percentage with respect to culture without addition of antibodies", "setting": "[1]; pt No. 13, 1000 ng/mL", "result": 19.7, "unit": "%"}, {"measurement": "colony formation percentage with respect to culture without addition of antibodies", "setting": "[1]; pt No. 14, 10 ng/mL", "result": 68.9, "unit": "%"}, {"measurement": "colony formation percentage with respect to culture without addition of antibodies", "setting": "[1]; pt No. 14, 100 ng/mL", "result": 0.0, "unit": "%"}, {"measurement": "colony formation percentage with respect to culture without addition of antibodies", "setting": "[1]; pt No. 14, 1000 ng/mL", "result": 0.0, "unit": "%"}, {"measurement": "colony formation percentage with respect to culture without addition of antibodies", "setting": "[1]; pt No. 15, 10 ng/mL", "result": 6.7, "unit": "%"}, {"measurement": "colony formation percentage with respect to culture without addition of antibodies", "setting": "[1]; pt No. 15, 100 ng/mL", "result": 0.0, "unit": "%"}, {"measurement": "colony formation percentage with respect to culture without addition of antibodies", "setting": "[1]; pt No. 15, 1000 ng/mL", "result": 3.3, "unit": "%"}, {"measurement": "colony formation percentage with respect to culture without addition of antibodies", "setting": "[1]; pt No. 18, 10 ng/mL", "result": 47.6, "unit": "%"}, {"measurement": "colony formation percentage with respect to culture without addition of antibodies", "setting": "[1]; pt No. 18, 100 ng/mL", "result": 0.0, "unit": "%"}, {"measurement": "colony formation percentage with respect to culture without addition of antibodies", "setting": "[1]; pt No. 18, 1000 ng/mL", "result": 0.0, "unit": "%"}, {"measurement": "colony formation percentage with respect to culture without addition of antibodies", "setting": "[1]; pt No. 20, 10 ng/mL", "result": 143.8, "unit": "%"}, {"measurement": "colony formation percentage with respect to culture without addition of antibodies", "setting": "[1]; pt No. 20, 100 ng/mL", "result": 0.0, "unit": "%"}, {"measurement": "colony formation percentage with respect to culture without addition of antibodies", "setting": "[1]; pt No. 20, 1000 ng/mL", "result": 0.0, "unit": "%"}, {"measurement": "erythroblast colony formation", "setting": "[2]; 100 ng/mL or more", "result": "inhibited"}, {"measurement": "colony formation percentage with respect to culture without addition of antibodies", "setting": "[2]; HYDREA-administered pt No. 1, 10 ng/mL", "result": 109.1, "unit": "%"}, {"measurement": "colony formation percentage with respect to culture without addition of antibodies", "setting": "[2]; HYDREA-administered pt No. 1, 100 ng/mL", "result": 0.0, "unit": "%"}, {"measurement": "colony formation percentage with respect to culture without addition of antibodies", "setting": "[2]; HYDREA-administered pt No. 1, 1000 ng/mL", "result": 0.0, "unit": "%"}, {"measurement": "colony formation percentage with respect to culture without addition of antibodies", "setting": "[2]; HYDREA-administered pt No. 23, 10 ng/mL", "result": 100.0, "unit": "%"}, {"measurement": "colony formation percentage with respect to culture without addition of antibodies", "setting": "[2]; HYDREA-administered pt No. 23, 100 ng/mL", "result": 0.0, "unit": "%"}, {"measurement": "colony formation percentage with respect to culture without addition of antibodies", "setting": "[2]; HYDREA-administered pt No. 23, 1000 ng/mL", "result": 0.0, "unit": "%"}, {"measurement": "colony formation percentage with respect to culture without addition of antibodies", "setting": "[2]; HYDREA-administered pt No. 24, 10 ng/mL", "result": 68.6, "unit": "%"}, {"measurement": "colony formation percentage with respect to culture without addition of antibodies", "setting": "[2]; HYDREA-administered pt No. 24, 100 ng/mL", "result": 0.0, "unit": "%"}, {"measurement": "colony formation percentage with respect to culture without addition of antibodies", "setting": "[2]; HYDREA-administered pt No. 24, 1000 ng/mL", "result": 0.0, "unit": "%"}, {"measurement": "colony formation percentage with respect to culture without addition of antibodies", "setting": "[2]; HYDREA-administered pt No. 26, 10 ng/mL", "result": 148.9, "unit": "%"}, {"measurement": "colony formation percentage with respect to culture without addition of antibodies", "setting": "[2]; HYDREA-administered pt No. 26, 100 ng/mL", "result": 10.6, "unit": "%"}, {"measurement": "colony formation percentage with respect to culture without addition of antibodies", "setting": "[2]; HYDREA-administered pt No. 26, 1000 ng/mL", "result": 0.0, "unit": "%"}, {"measurement": "colony formation percentage with respect to culture without addition of antibodies", "setting": "[2]; HYDREA-administered pt No. 27, 10 ng/mL", "result": 152.4, "unit": "%"}, {"measurement": "colony formation percentage with respect to culture without addition of antibodies", "setting": "[2]; HYDREA-administered pt No. 27, 100 ng/mL", "result": 0.0, "unit": "%"}, {"measurement": "colony formation percentage with respect to culture without addition of antibodies", "setting": "[2]; HYDREA-administered pt No. 27, 1000 ng/mL", "result": 0.0, "unit": "%"}, {"measurement": "colony formation percentage with respect to culture without addition of antibodies", "setting": "[2]; HYDREA-administered pt No. 28, 10 ng/mL", "result": 112.5, "unit": "%"}, {"measurement": "colony formation percentage with respect to culture without addition of antibodies", "setting": "[2]; HYDREA-administered pt No. 28, 100 ng/mL", "result": 0.0, "unit": "%"}, {"measurement": "colony formation percentage with respect to culture without addition of antibodies", "setting": "[2]; HYDREA-administered pt No. 28, 1000 ng/mL", "result": 0.0, "unit": "%"}]}]}
